According to patent US20240043859A1, “HERBICIDE-RESISTANT PROTEIN, AND GENE AND USE THEREOF” (QINGDAO KINGAGROOT CHEMICAL COMPOUND CO., LTD., priority 2020, published 2024):
Entries after “also recorded” stand apart in the source; their conditions may differ.

B1: QYD72: AAD-like enzyme, SEQ ID NO. 143 (protein)
chain: MAADAPFVVKPLPASFGAVVTGLALADLDEAAFAALYRTWLDYALLIFPGQHLDRDQQIAFARRFGPLEFDIAPISNVRSDGSVRPDDDADDVVKVLKGNMGWHCDSTYMPVQAKGAVFTAHVVPEDGGETDWADMRAAYDALDPAMRRRIEGLSAYHSLRHSQGKLGHVHKPGSAYSGYGMTVEAPPLRPLVKVHPETSRKTLMVGRHAYGIPGFEDAESERLLDELADFACRPPRTWRHSWTPGDAVIWDNRALMHRACPWDMTRPRVMYHSRLAGDPVAEFAAPA
modifications: Synthetic polypeptide, QYD72, D72
B2: QYD73: AAD-like enzyme, SEQ ID NO. 145 (protein)
chain: MARTFDVQPLDATFGAVISGVKLAALDDETWRELYATWLQYALLVFPGQHLSRDQQIAFARRFGPLEFEIIALSNVKSDGTIRSEVENDDVIKVLKGNMGWHADSTYMPVQAKGAVFTAEVVPSVGGQTGWADMRAAYDALDGATRQKVEQLSAYHSLHYSQSKLGHQHKPGSAYSGYGFHDGPVPLRPLVKTHPETGRKSLLIGRHAHNIPGMDKDESARFLEDLVASACQPPRIYHHTWAAGDAVVWDNRCLLHQATPWDMTQPRVMWHSRIAGDPLSEAALG
modifications: Synthetic polypeptide, QYD73, D73
B3: QYD74: AAD-like enzyme, SEQ ID NO. 147 (protein)
chain: MARAFDIEPLDATFGAIITGVKLAALDDAVWRDLYAAWLEYALLIFPSQNLGRDEQIAFAKRFGALEFELAPISNVNSDGTLITDPDNDILKVLKGNMGWHSDSTYMPIQAKGAVFSARVVPKSGGSTGWADMRAAYDALDDNLKRKVERLAAHHSLRYSQAKLGHFPKKHSAYSGYGFHDGPEPLRPLVKTHPETGRKSLLIGRHAHNIPGMSAEESERFLQELVDFACRPPRVYHHEWTAGDVAVWDNRCLLHQATPWDMSEPRVMWHSRIAGDPTTESALA
modifications: Synthetic polypeptide, QYD74, D74
B4: QYD76: AAD-like enzyme, SEQ ID NO. 151 (protein)
chain: MARMFDIAPLDATFGAVVTGVKVTRIDDATWRDLHAAWLEYALLIFPGQFLSRAEQIAFAKRFGPLEFEMAPISNVKADGTIRIEADNDDVVKVLKGNMGWHADSTYMPVQAKGAVFSAEVVPGEGGRTGWADMRAAYDALDAARRVRVESLTAYHSLYYSQAKLGHQPKRGSDYSGYGFHDGPVPRRPLVKVHPETGRKSLLIGRHAHNIPGMDVAESTQFLESLVDFACQPPRIYHHQWTAGDAVVWDNRCLLHRATPWDMTKPRVMWHSRIAGDPVSEASLG
modifications: Synthetic polypeptide, QYD76, D76
B5: QYD58: AAD-like enzyme, SEQ ID NO. 115 (protein)
chain: MARTFDIEPLAGTTFGAVVRGMKVAILDDAGWRDLYAAWLKYALLVFPGQHLKRDEQIAFAKRFGALEFEMAALSNVKSDGTLRQEKDNDDMMKILKGNMGWHADSTYMPVQAKGAVFSAEIVPGAGGQTGFADMRAAYDALDAGRKAKVERLAAHHSLHYSQSKLGHQTKKQDGEYSGYGLHDGPVPLRPLVKTHPETGRKSLLIGRHAHNIPGMDKAESERLLQELVDFACQPPRVYHHDWTAGDAVVWDNRCLLHQATPWDMTQPRVMWHSRIAGDPRSEAALGVTAVSAAASG
modifications: Synthetic polypeptide, QYD58, D58
B6: QYD34: AAD-like enzyme, SEQ ID NO. 67 (protein)
chain: MSMQVIPLDATFGATVTGLKLSELDEAVFAEIYDHWLRYSLLVFPGQNLDNEQQVTFAKRFGALEIDLVELSNVKDDGSLRTAPDDDRIKILKGNMGWHHDSTYMPVQAKGAVFRADTVPSHGGETGWADMCAAYDALGDAMRNRIEGLSAHHSLTYSQGKAGFKHKDKDSEYNGYGLDQDGAPLRPLVKTHAETGRKTLTIGRHAHAVPGLSQADSEALLTELVDFACQPPRIYHHGWQPGDVVVWDNRCLMHQACPWDMAERRVMFHSRLAGDPEHEFAAPN
modifications: Synthetic polypeptide, QYD34, D34
B7: QYD50: AAD-like enzyme, SEQ ID NO. 99 (protein)
chain: MEEPDMARTLGIEPLAGTTFGAVVKGVKVTALDDATWRELHAAWLQYALLIFPDQHLKRAEQIAFARRFGPLEFEMAAISNVKADGSLRIEADNDDVMKILKGNMGWHCDSTYMPVQAKGAVFSAEVVPSIGGRTGFADMRAAWDALDDALKARIETLSAYHSLHHSQSKLGHQTNKRDGEYSGYGLHDGPVPLRQLVKVHPETGRKSLLIGRHAHNIPGMDKADSERLLQELVDFACQPPRIYHHDWAAGDAVVWDNRCLLHQATPWDMTQPRVMWHSRIAGDPRSEAALGGSAVSAAASG
modifications: Synthetic polypeptide, QYD50, D50

What was measured:
[1] = Chromogenic reaction of degrading herbicides in bacteria: triclopyr; type: cell-based, Escherichia coli; conditions: recombinant E. coli expressing the gene
Method: (§1) To transform the plasmids to be tested, an AAD12-expressing plasmid and a blank control plasmid pET15b were respectively transformed into the protein expression E. coli BL21(DE3) strains. A monoclone was selected and inoculated in a 10 ml centrifuge tube with 3 ml LB medium, and cultivated at 37° C., 200 rpm for 6-8 hours. […] The temperature was switched to 28° C. and the cultivation continued overnight. In the next morning, 200 μL of each bacteria solution was taken and centrifuged to precipitate thallus, 180 μL of the supernatant was taken and added in a 96-well plate, and 20 μL of borate buffer of pH 10 was added. Then the mixture was added with 2 μL of 8% potassium ferricyanide and mixed well, followed by adding 2 μL of 2% 4-aminoantipyrine, and placed at room temperature for 5 min to observe the color and detect the A510 value. […]

[2] = Chromogenic reaction of degrading herbicides in bacteria: 2,4-D; type: cell-based, Escherichia coli; conditions: recombinant E. coli expressing the gene, 2,4-D added to the medium, red = phenols
Procedure, shortened: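 Colour from 2,4-D degradation was detected at A510 after 5 min at room temperature, with 4-aminoantipyrine and ferricyanide added to culture supernatant in pH 10 borate. Cultures were AAD12-expressing or empty-vector (pET15b) BL21(DE3), grown overnight at 28 °C with 0.5 mM 2,4-D, 0.1 mM IPTG and 2 mM α-ketoglutarate.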

[3] = type: cell-based, Escherichia coli
Method: as §1

[4] = tested on: Arabidopsis thaliana; assay: Herbicide resistance of transgenic Arabidopsis thaliana seedlings on plate medium (root growth); type: in vivo; conditions: Arabidopsis overexpressing the gene
Method: Expression in Arabidopsis thaliana was regulated by its AtUbi10 Arabidopsis thaliana ubiquitin promoter and the MAS (mannopine synthase) terminator. Hygromycin resistance gene (HygR=hpt) served as the selection marker.
Preparation of Agrobacterium infection solution: An activated Agrobacterium (GV3101) monoclone was picked and inoculated in 30 ml YEP liquid medium [yeast powder 10 g/L, tryptone 10 g/L, NaCl 5 g/L, 25 mg/L Rifampicin and 50 mg/L Kanamycin], shaking-cultured at 200 rmp/min, 28° C. overnight until the OD600 was about 1.0-1.5, then centrifuged at 6000 rmp/min for 10 min to collect the bacteria, and the supernatant was discarded. Arabidopsis thaliana infection solution (sucrose 50 g/L, Silwet L-77 300 μL/L, no need to adjust pH) was used to resuspend the cells to OD600=0.8 for later use.
Genetic transformation of Arabidopsis thaliana by flower dipping: Before transformation of Arabidopsis thaliana plants, attentions were paid to whether the plants were growing well, the inflorescences were abundant, and no stress response occurred. The first transformation was performed when plants were about 20 cm high. Plants could be properly watered if the soil was dry. The grown siliques were cut off with scissors the day before transformation. The inflorescences of the plants to be transformed were soaked in the above-mentioned Agrobacterium solution for 30 seconds to 1 minute, which was stirred gently during the period. And a layer of liquid film should appear on the infiltrated plant. The transformed plants were cultured in a dark environment for 24 hours, and then taken out and grown in a normal light environment. A second transformation could be performed in the same way a week later.
Seeds were treated with disinfectant for 5 min, washed with sterile water for 5 times and then one part was spread on MS transgenic screening medium (containing 30 μg/mL hygromycin, 100 μg/mL carbenicillin) to screen transgenic seedlings, and the other part was spread on MS medicated medium [containing 250 μg/mL Cefotaxime sodium and 0.3 μM 2,4-D] to screen herbicide-resistant seedlings at mean time. The petri dish spread with seeds was placed at 4° C. for vernalization for 3 days, and taken out to a illumination incubator for cultivation (temperature of 22° C., 16 hours of light, 8 hours of darkness, light intensity of 100-150 μmol/m^2/s, humidity of 75%). After one week, it was observed that the roots of the wild-type control seedlings were not elongated and their growth was inhibited, while the transgenic seedlings had normal root growth, showing drug resistance. The transgenic positive seedlings and herbicide-resistant seedlings were photographed and transplanted into small pots filled with soil for cultivation.
The transgenic lines with the nine vectors, pQY2309, pQY2310, pQY2311, pQY2312, pQY2313, pQY2314, pQY2315, pQY2316 and pQY2317, overexpressing AAD gene in the T2 generation were further tested on plate medium for their resistance to 2,4-D, 2,4-DB sodium and MCPA herbicide. Two events were tested for each transformant.

| Molecule | Chromogenic reaction of degrading herbicides in bacteria: Triclopyr [1] | Chromogenic reaction of degrading herbicides in bacteria: 2,4-D [2] | Chromogenic reaction of degrading herbicides in bacteria: MCPA [3] | other results |
| --- | --- | --- | --- | --- |
| B1 | Yes | Yes | Yes | Chromogenic reaction of degrading herbicides in bacteria: Triclopyr ([1]; listed as D72): slight degradation; Chromogenic reaction of degrading herbicides in bacteria: 2,4-D ([2]; listed as D72): could degrade 2,4-D; also recorded: capable of degrading 2,4-D |
| B2 | Yes | Yes | Yes | Chromogenic reaction of degrading herbicides in bacteria: Triclopyr ([1]; listed as D73): slight degradation; Chromogenic reaction of degrading herbicides in bacteria: 2,4-D ([2]; listed as D73): could degrade 2,4-D; also recorded: capable of degrading 2,4-D |
| B3 | Yes | Yes | Yes | Chromogenic reaction of degrading herbicides in bacteria: Triclopyr ([1]; listed as D74): slight degradation; Chromogenic reaction of degrading herbicides in bacteria: 2,4-D ([2]; listed as D74): could degrade 2,4-D; also recorded: capable of degrading 2,4-D |
| B4 | Yes | Yes | Yes | Chromogenic reaction of degrading herbicides in bacteria: Triclopyr ([1]; listed as D76): slight degradation; Chromogenic reaction of degrading herbicides in bacteria: 2,4-D ([2]; listed as D76): could degrade 2,4-D; also recorded: capable of degrading 2,4-D |
| B5 | Yes | Yes | Yes | Chromogenic reaction of degrading herbicides in bacteria: Triclopyr ([1]; listed as D58): slight degradation; Chromogenic reaction of degrading herbicides in bacteria: 2,4-D ([2]; listed as D58): could degrade 2,4-D; also recorded: capable of degrading 2,4-D |
| B6 |  | Yes | NO | Resistance of transgenic Arabidopsis thaliana: 2,4-D [4]: Yes; Chromogenic reaction of degrading herbicides in bacteria: 2,4-D ([2]; listed as D34): red reactions |
| B7 |  | Yes | Yes | Resistance of transgenic Arabidopsis thaliana: 2,4-D [4]: Yes; Resistance of transgenic Arabidopsis thaliana: MCPA [4]: Yes; Chromogenic reaction of degrading herbicides in bacteria: 2,4-D ([2]; listed as D50): could degrade 2,4-D; also recorded: capable of degrading 2,4-D |
